Data reported in patent US9884910B2, “Anti-PDGF-C antibodies” (ThromboGenics NV, priority 2012, dated 2018).

B1: Humanized mAb 29H1: humanized 29H1; VH SEQ ID NO:106, VL SEQ ID NO:107 (antibody, V domains shown)
VH: EVQLLESGGGLVQPGGSLRLSCAASGFTFSNYGMSWVRQTPGKGLEWVATIGSGGHYTYYPDSVKGRFTISRDNAKNTLYLQMNSLRAEDTAVYYCARQAPLWDCSDYWGQGTLLTVSS
VL: DVVMTQSPLSLPVTLGQPASISCRSSQTIVHSDGTTYLEWYLQKPGQSPRLLIYKVSNRFSGVPDRFSGSGSGTDFTLKISRVEAEDVGVYYCFQGSHVPPTFGQGTKLEIK
modifications: humanized variable heavy chain murine monoclonal antibody 29 H1; humanized variable light chain murine monoclonal antibody 29 H1
B2: 29H1: murine monoclonal anti-PDGF-C antibody, IgG1 κ; VL SEQ ID NO:17, VH SEQ ID NO:21 (antibody, listed as Mus musculus, V domains shown)
VH: EVQLVESGGDLVKPGGSLKLSCAASGFTFSNYGMSWVRQTPDKRLEWVATIGSGGHYTYYPDSVKGRFTISRDSAKSTLYLQMSSLRSDDTAIYYCARQAPLWDCSDYWGQGTTLTVSS
VL: DVLMTQTPLSLPVSLGDQASISCRSNQSIVHSNGDTYLEWYLQKPGQSPNLLIYKVSNRFSGVPDRFSGSGSGTDFTLKISRVEAEDLGVYYCFQGSHVPPTFGGGTKLEIK

Experiments:
PDGF-C = molecular target: T1, PDGF-C (Homo sapiens, UniProt Q9NRA1); experiment: Surface Plasmon Resonance affinity of anti-PDGF-C antibodies for PDGF-C (Biacore 3000); format: binding; settings: humanized antibodies; as in Example 3
T1 construct: the growth factor domain of PDGF-C (amino acids 235-345 of human PDGF-C); purchased R&D Systems 1687-CC/CF
T1 sequence (Q9NRA1 235-345): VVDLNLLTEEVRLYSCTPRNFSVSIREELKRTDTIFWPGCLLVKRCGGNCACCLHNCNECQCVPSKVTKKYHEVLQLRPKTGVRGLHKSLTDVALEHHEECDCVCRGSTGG
Protocol: The different antibodies were each separately coated to a CM5 chip at a density of 1680 RU using standard amine chemistry. Different concentrations (200, 175, 150, 125, 100, 75, 50, 25, 12.5, 6.25, 3.125 & 0 nM) of PDGF-C (R&D Systems, Cat. 1687-CC/CF) were injected over the coated antibody for 5 min, then buffer was flowed for 10 min to monitor the dissociation of the captured antigen. The surface was regeneration between each run with a single injection of glycine-HCl, pH 2.5. Affinities were obtained by analyzing the sensorgrams with the help of the BIAevaluation 4.1 software assuming a 1:1 interaction. The experiment was performed with a Biacore 3000 instrument.
The affinity of the above-listed exemplary humanized anti-PDGF-C antibodies for PDGF-C was analysed (as in Example 3) and the humanized antibodies were subsequently assessed in the in vitro bioassay described in Example 4.

[1] = molecular target: T2, PDGFRα activation by human PDGF-C (Homo sapiens, UniProt Q9NRA1); experiment: PathHunter PDGFRα receptor tyrosine kinase assay in U2OS PDGFRα PLCG1 cells; format: cell-based
T2 construct: the growth factor domain of PDGF-C (amino acids 235-345 of human PDGF-C); purchased R&D Systems 1687-CC/CF; host or cells: ligand added to U2OS PDGFRα PLCG1 cells (DiscoveRx, assay 93-0823C3) that express the transfected receptor
T2 sequence (Q9NRA1 235-345): as above
Excerpt: To evaluate the inhibitory activity of anti-human PDGF-C antibodies on PDGFRα activation by human PDGF-C, the PathHunter® receptor tyrosine kinase assay for PDGFRα (93-0823C3) from DiscoveRx® was used. […] A small complementing fragment of β-gal, the Prolink™ tag (PK) has been fused recombinantly to the intracellular C-terminus of the receptor tyrosine kinase PDGFRα. The larger portion of β-gal, termed EA for enzyme acceptor, is co-expressed with an SH2 (Src Homology 2) phosphotyrosine binding domain. Ligand-induced activation of the receptor results in dimerization and intra-cellular cross-phosphorylation of the receptor. Subsequently, the SH2 domain specifically binds the phosphorylated receptor resulting in the complementation of the two β-gal fragments PK and EA, and formation of a functional β-gal enzyme. Following addition of a β-gal substrate, an easily detectable chemiluminescent signal is produced which is directly correlated to receptor activation. The LumiLITE™ microplate reader is fully compatible with all EFC-based assays of DiscoveRx® and is therefore used.
For the PathHunter® PDGFRα, assay, U2OS PDGFRα, PLCG1 (phospholipase Cγ as the source of the SH2 domain) cells from DiscoveRx® were used. Frozen cells were stored in liquid nitrogen. Upon thawing, cells were resuspended in pre-warmed thawing medium (i.e. culture medium without the selection antibiotics Geneticin and Hygromycin B). After 48 hours of culture in a 5% CO2 incubator at 37° C., thawing medium was replaced by culture medium (MEM Eagle 1× (30-2003 from Invitrogen), 10% fetal bovine serum (SH30071.03 from Perbio Science), 1× Penicillin-Streptomycin-Glutamine (10378-016 from Invitrogen), 250 μg/ml Hygromycin B (10687-010 from Invitrogen), 500 μg/ml Geneticin (10131-035 from Invitrogen)). Once confluence was reached, cells were passaged with a ⅓ dilution every 2-3 days using Accutase (L11-007 from PAA). Cells were maintained in a non-confluent state during routine culture.
In the PathHunter® PDGFRα, assay, the U2OS PDGFRα, PLCG1 cells from DiscoveRx® cultured up to 10 passages were used. Cells were seeded at 20.000 cells in 100 μl per well in 96-well white culture-treated microplates with clear bottom (3610 from Corning). The PathHunter® Cell Plating 16 Reagent (93-0563R16 from DiscoveRx®) was employed as seeding medium. Following 24 hours of culture in 5% CO2 at 37° C., 25 μl of a 5-fold concentrated agonist solution in Cell Plating 16 Reagent was used per well to stimulate the cells. Recombinant human PDGF-C from R&D Systems (1687-CC/CF; Va1235-Gly345) was applied as agonist. After 3 hours incubation at room temperature, 60 μl of PathHunter® detection reagent (93-0001 from DiscoveRx®; 1 part Galacton Star® Substrate, 5 parts Emerald II™ Solution, and 19 parts of PathHunter® Cell Assay Buffer) was added. Cells were placed at room temperature and in the dark for another hour before luminescence was measured with the LumiLITE™ microplate reader. With GraphPad Prism® software, a non-linear regression analysis was performed using the obtained luminescent values in order to generate a sigmoidal agonist dose-response curve with variable slope. The EC50 (i.e. half maximal effective concentration) and EC80 value (i.e. the effective concentration that leads to 80% of the maximal response) for human PDGF-C was calculated.
To evaluate the inhibitory activity of anti-human PDGF-C antibodies on PDGFRα, activation by human PDGF-C, equal volumes of […] concentrated solutions of anti-human PDGF-C antibodies and the EC80 of human PDGF-C, prepared in Cell Plating 16 Reagent, were mixed and the assay was performed as described above. As positive controls, an anti-human PDGF-C polyclonal goat IgG antibody (AF1560 from R&D Systems) and recombinant human PDGFRα, Fc chimera (6765-PR from R&D Systems) were employed. […]

[2] = molecular target: T3, 15-mer, overlapping peptides covering the entire human PDGF-C molecule (Homo sapiens, UniProt Q9NRA1); experiment: Epitope mapping ELISA on 15-mer overlapping peptides; format: binding; settings: peptide coated 10 μg/mL; antibody 1 μg/mL
T3 construct: host or cells: chemical synthesis
Protocol: The binding of anti-PDGF-C antibodies to 15-mer, overlapping peptides covering the entire human PDGF-C molecule was assessed by ELISA. Antibodies included in this analysis are the five antibodies potently inhibiting activation of PDGF-Rα by PDGF-C, i.e. monoclonal antibodies 2D3, 5A2, 5H7, 16B1 and 29H1. Further included are two antibodies capable of binding to PDGF-C, but not or very poorly inhibiting activation of PDGF-Rα by PDGF-C, i.e. monoclonal antibodies 12E5 (IgG1) and 19F12 (IgG2b) (see Example 4). […] For all antibodies, it was confirmed that they bind to human PDGF-C and binding to full-length human PDGF-C was for all antibodies tested more efficient than binding to any of the peptides identified as described hereafter.
The indicated peptides where synthesized in an N-terminally biotinylated form and coated onto a neutravidin plate (Thermo Scientific, Cat. 15127) at a concentration of 10 μg/mL. The antibodies listed in the table were incubated in each well at a concentration of 1 μg/mL and, following washing, were then detected in a standard ELISA format using an appropriate, HRP-labeled secondary antibody (goat anti-mouse IgG-HRP for all antibodies except sc-80290, and goat anti-rat IgG-HRP for sc-80290). Each antibody was tested at least twice, and up to 4 times. A “+” in the table indicate that a signal to background >3 was found and confirmed at least once. The background signal was measured in the absence of peptide using both the primary and the secondary antibodies. Antibodies sc-80290 and MAB1560 were tested only against peptides 42-63 since this represents the fraction of the protein that was used as an immunogen.

glioblastoma tumor, U118 = experiment: Antitumor effect against U118 glioblastoma xenograft; format: in vivo
Protocol: For the evaluation of anti-tumor activity of the antibodies, animals were weighed and tumors measured 2 times weekly using a caliper. Tumor weights were calculated using the formula mass (mg)=[length (mm)×width (mm)^2]/2. Antitumor activity evaluation was done at the single dose of 20 mg/kg. A dosage producing a 20% body weight loss (bwl) or 10% or more drug deaths, was considered an excessively toxic dosage. Animal body weights included the tumor weights. The primary efficacy end point is the tumor growth inhibition (% TGI). Changes in tumor volume for each treated (T) and control (C) are calculated for each tumor by subtracting the tumor volume on the day of first treatment (staging day) from the tumor volume on the specified observation day. The median ΔT is calculated for the treated group and the median ΔC is calculated for the control group. Then the ratio ΔT/ΔC is calculated and expressed as a percentage of TGI: ΔT=Tt−T0 ΔC=Ct−C0 % TGI=[1−(median(Tt−T0)/median(Ct−C0)]*100
The antitumor effect of 29H1, 5A2 and 16B1 was evaluated against a measurable glioblastoma tumor, U118, which express both PDGF-C and its receptor, PDGFRa, S.C. implanted in female SCID Beige mice. Control group was treated with PBS alone. The antibodies were administered by an intraperitoneal (IP) injection, and treatment started on day 28 post-tumor implantation and was performed twice a week.

Molecule	Kd (PDGF-C) [nM]	IC50 ([1]; humanized antibodies, * average of 3 measurements) [nM]	IC50 ([1]; Table 5 first IC50 column, PDGF-C at EC80, * average of 3 measurements) [nM]	IC50 ([1]; Table 5 second IC50 column (separate experiment), PDGF-C at EC80) [nM]	IC50 ([1]; Table 5 third IC50 column (separate experiment), PDGF-C at EC80) [nM]	binding to peptide No 58 (SEQ ID NO: 96) VLQLRPKTGVRGLHK [2]	tolerability / body weight loss (glioblastoma tumor, U118; 20 mg/kg IP twice a week)	TGI (%) Day 53 (glioblastoma tumor, U118; 20 mg/kg IP twice a week from day 28, day 53 post-tumor implantation) [%]	TGI (%) Day 56 (glioblastoma tumor, U118; 20 mg/kg IP twice a week from day 28, day 56 post-tumor implantation) [%]	TGI (%) Day 60 (glioblastoma tumor, U118; 20 mg/kg IP twice a week from day 28, day 60 post-tumor implantation) [%]	TGI (%) Day 63 (glioblastoma tumor, U118; 20 mg/kg IP twice a week from day 28, day 63 post-tumor implantation) [%]	TGI (%) Day 67 (glioblastoma tumor, U118; 20 mg/kg IP twice a week from day 28, day 67 post-tumor implantation) [%]
B1	0.7	8.24										
B2			3.45	0.87	0.24	+ (A “+” in the table indicate that a signal to background >3 was found and confirmed at least once)	well-tolerated with no tumor body weight loss	39.4	53.0	53.8	42.8	50.0
